# In patent US20120329708A1 (INDIANA UNIVERSITY RESEARCH AND TECHNOLOGY, published 2012):
# *1 amine or outer side, *2 acyl side, *3 side chain or, on linkers, in order; H or OH if unused. Where no end group is shown, it is not given here. Side-chain parts run from the residue outwards. [ ]: non-standard residue; d: D form. The star is where a group is joined. 40K‑TE PEG = 40 kDa PEG attached to Cys by thioether; γGlu = O=C(O)[C@H](CCC(=O)[*:2])N[*:1]; Palmitoyl = CCCCCCCCCCCCCCCC(=O)*; Morn = not defined here; Aib = CC(C)(N)C(=O)O
# T1: GIP receptor (procedure of Example 3)
# T1 sequence (P48546 whole entry, species assumed, looked up): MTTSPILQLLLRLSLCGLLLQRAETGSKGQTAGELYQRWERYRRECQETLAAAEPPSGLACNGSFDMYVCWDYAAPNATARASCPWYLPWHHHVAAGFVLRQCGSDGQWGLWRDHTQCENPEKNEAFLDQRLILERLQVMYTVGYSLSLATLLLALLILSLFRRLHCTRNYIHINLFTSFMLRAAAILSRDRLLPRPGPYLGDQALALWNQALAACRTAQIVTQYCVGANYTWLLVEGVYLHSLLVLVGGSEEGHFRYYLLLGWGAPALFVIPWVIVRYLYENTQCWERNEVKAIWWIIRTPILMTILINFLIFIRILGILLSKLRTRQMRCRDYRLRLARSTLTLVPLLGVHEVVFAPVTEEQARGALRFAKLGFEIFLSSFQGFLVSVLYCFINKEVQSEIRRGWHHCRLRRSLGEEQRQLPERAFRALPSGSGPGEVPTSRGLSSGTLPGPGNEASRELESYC
# T2: human GIPR (CHO-K1 cells stably expressing human GIPR) (human, UniProt P48546 22-466)
# T2 sequence (looked up): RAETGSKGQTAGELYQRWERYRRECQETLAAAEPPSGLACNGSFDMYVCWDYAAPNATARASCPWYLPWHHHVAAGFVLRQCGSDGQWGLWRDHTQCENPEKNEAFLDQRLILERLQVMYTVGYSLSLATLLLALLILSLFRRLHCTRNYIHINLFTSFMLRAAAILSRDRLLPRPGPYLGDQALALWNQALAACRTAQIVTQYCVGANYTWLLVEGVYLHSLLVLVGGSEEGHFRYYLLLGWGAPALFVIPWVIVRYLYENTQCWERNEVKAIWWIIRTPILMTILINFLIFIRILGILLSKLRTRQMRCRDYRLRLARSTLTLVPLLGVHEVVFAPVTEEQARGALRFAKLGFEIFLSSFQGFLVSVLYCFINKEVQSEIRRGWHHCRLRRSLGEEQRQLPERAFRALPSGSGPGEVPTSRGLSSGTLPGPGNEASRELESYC
# B1: peptide of SEQ ID NO: 16 (peptide)
# peptide: H[Aib]QGTFTSDK([γGlu-γGlu-Palmitoyl])SKYLD[Aib]RAAQDFVQWLLDTKQ-OH
# modifications: N-terminus assumed
# SMILES: CCCCCCCCCCCCCCCC(=O)N[C@@H](CCC(=O)N[C@@H](CCC(=O)NCCCC[C@H](NC(=O)[C@H](CC(=O)O)NC(=O)[C@H](CO)NC(=O)[C@@H](NC(=O)[C@H](Cc1ccccc1)NC(=O)[C@@H](NC(=O)CNC(=O)[C@H](CCC(N)=O)NC(=O)C(C)(C)NC(=O)[C@@H](N)Cc1c[nH]cn1)[C@@H](C)O)[C@@H](C)O)C(=O)N[C@@H](CO)C(=O)N[C@@H](CCCCN)C(=O)N[C@@H](Cc1ccc(O)cc1)C(=O)N[C@@H](CC(C)C)C(=O)N[C@@H](CC(=O)O)C(=O)NC(C)(C)C(=O)N[C@@H](CCCNC(=N)N)C(=O)N[C@@H](C)C(=O)N[C@@H](C)C(=O)N[C@@H](CCC(N)=O)C(=O)N[C@@H](CC(=O)O)C(=O)N[C@@H](Cc1ccccc1)C(=O)N[C@H](C(=O)N[C@@H](CCC(N)=O)C(=O)N[C@@H](Cc1c[nH]c2ccccc12)C(=O)N[C@@H](CC(C)C)C(=O)N[C@@H](CC(C)C)C(=O)N[C@@H](CC(=O)O)C(=O)N[C@H](C(=O)N[C@@H](CCCCN)C(=O)N[C@@H](CCC(N)=O)C(=O)O)[C@@H](C)O)C(C)C)C(=O)O)C(=O)O
# B2: peptide of SEQ ID NO: 15 (peptide)
# peptide: H[Aib]QGTFTSDK([γGlu-γGlu-Palmitoyl])SKYLD[Aib]RAAQDFVQWL[Morn]DTKQ-OH
# modifications: not fully specified; printed as HaibQGTFTSDK(γGlu-γGlu-C16)SKYLDaibRAAQDFVQWLMornDTKQ-acid; reading uncertain
# B3: peptide of SEQ ID NO: 14 (peptide)
# peptide: HSQGTFTSDKSKYLDERAAQDFVQWLLDTKX
# modifications: s at position 2 (lower case, presumably D-Ser); K(γGlu-C16) at position 10 (Lys acylated with C16 via γGlu spacer); C-terminal γGlu; C-terminal amide
# B4: peptide of SEQ ID NO: 17 (peptide)
# peptide: H[Aib]QGTFTSDK([γGlu-γGlu-Palmitoyl])SKYLD[Aib]RAAQDFVQWLMNTK[γGlu]-NH2
# modifications: N-terminus assumed
# SMILES: CCCCCCCCCCCCCCCC(=O)N[C@@H](CCC(=O)N[C@@H](CCC(=O)NCCCC[C@H](NC(=O)[C@H](CC(=O)O)NC(=O)[C@H](CO)NC(=O)[C@@H](NC(=O)[C@H](Cc1ccccc1)NC(=O)[C@@H](NC(=O)CNC(=O)[C@H](CCC(N)=O)NC(=O)C(C)(C)NC(=O)[C@@H](N)Cc1c[nH]cn1)[C@@H](C)O)[C@@H](C)O)C(=O)N[C@@H](CO)C(=O)N[C@@H](CCCCN)C(=O)N[C@@H](Cc1ccc(O)cc1)C(=O)N[C@@H](CC(C)C)C(=O)N[C@@H](CC(=O)O)C(=O)NC(C)(C)C(=O)N[C@@H](CCCNC(=N)N)C(=O)N[C@@H](C)C(=O)N[C@@H](C)C(=O)N[C@@H](CCC(N)=O)C(=O)N[C@@H](CC(=O)O)C(=O)N[C@@H](Cc1ccccc1)C(=O)N[C@H](C(=O)N[C@@H](CCC(N)=O)C(=O)N[C@@H](Cc1c[nH]c2ccccc12)C(=O)N[C@@H](CC(C)C)C(=O)N[C@@H](CCSC)C(=O)N[C@@H](CC(N)=O)C(=O)N[C@H](C(=O)N[C@@H](CCCCN)C(=O)N[C@@H](CCC(N)=O)C(=O)O)[C@@H](C)O)C(C)C)C(=O)O)C(=O)O
# Molecular target: T1, GIP receptor (procedure of Example 3)
# Assay: cell-based or functional assay
row,Binder,EC50 (nM) at GIP receptor (procedure of Example 3)
1,H[Aib]QGTFTSDK([γGlu-γGlu-Palmitoyl])SKYLD[Aib]RAAQDFVQWLMDTK[γGlu]-NH2 [peptide of SEQ ID NO: 12],12.8 nM
2,B1,1.04 nM
3,B2,1.9 nM
4,B3,976 nM
5,H[Aib]QGTFTSDYSKYLDERRA[Aib]EFVC(40K‑TE PEG)WLLDTK[γGlu]-NH2 [peptide of SEQ ID NO: 13],140 nM

# Molecular target: glucagon receptor (HEK293 cells co-transfected with the glucagon receptor and a CRE-luciferase gene)
# Assay: cell-based or functional assay
row,Binder,"EC50 (nM) at glucagon receptor (cAMP-induced luciferase reporter, HEK293)"
1,H[Aib]QGTFTSDK([γGlu-γGlu-Palmitoyl])SKYLD[Aib]RAAQDFVQWLMDTK[γGlu]-NH2 [peptide of SEQ ID NO: 12],0.01 nM
2,B1,0.015 nM
3,B2,0.006 nM
4,B3,0.003 nM
5,H[Aib]QGTFTSDYSKYLDERRA[Aib]EFVC(40K‑TE PEG)WLLDTK[γGlu]-NH2 [peptide of SEQ ID NO: 13],2.81 nM

# Molecular target: GLP-1 receptor (HEK293 cells co-transfected with the GLP-1 receptor and a CRE-luciferase gene)
# Assay: cell-based or functional assay
row,Binder,"EC50 (nM) at GLP-1 receptor (cAMP-induced luciferase reporter, HEK293)"
1,H[Aib]QGTFTSDK([γGlu-γGlu-Palmitoyl])SKYLD[Aib]RAAQDFVQWLMDTK[γGlu]-NH2 [peptide of SEQ ID NO: 12],0.003 nM
2,B1,0.019 nM
3,B2,0.005 nM
4,B3,0.003 nM
5,H[Aib]QGTFTSDYSKYLDERRA[Aib]EFVC(40K‑TE PEG)WLLDTK[γGlu]-NH2 [peptide of SEQ ID NO: 13],0.567 nM

# Molecular target: T2, human GIPR (CHO-K1 cells stably …)
# Assay: cell-based or functional assay
row,Binder,"EC50 (nM) at GIP receptor (cAMP production, DiscoveRx Hithunter cAMP XS+, CHO-K1)"
1,B4,> 2000 nM

# Molecular target: human GLP-1R (CHO-K1 cells stably expressing human GLP-1R) (human, UniProt P43220 24-463)
# Assay: cell-based or functional assay
row,Binder,"EC50 (nM) at GLP-1 receptor (cAMP production, DiscoveRx Hithunter cAMP XS+, CHO-K1)"
1,B4,0.075 nM

# Molecular target: human GCGR (CHO-K1 cells stably expressing human GCGR) (human, UniProt P47871 26-477)
# Sequence (P47871 26-477): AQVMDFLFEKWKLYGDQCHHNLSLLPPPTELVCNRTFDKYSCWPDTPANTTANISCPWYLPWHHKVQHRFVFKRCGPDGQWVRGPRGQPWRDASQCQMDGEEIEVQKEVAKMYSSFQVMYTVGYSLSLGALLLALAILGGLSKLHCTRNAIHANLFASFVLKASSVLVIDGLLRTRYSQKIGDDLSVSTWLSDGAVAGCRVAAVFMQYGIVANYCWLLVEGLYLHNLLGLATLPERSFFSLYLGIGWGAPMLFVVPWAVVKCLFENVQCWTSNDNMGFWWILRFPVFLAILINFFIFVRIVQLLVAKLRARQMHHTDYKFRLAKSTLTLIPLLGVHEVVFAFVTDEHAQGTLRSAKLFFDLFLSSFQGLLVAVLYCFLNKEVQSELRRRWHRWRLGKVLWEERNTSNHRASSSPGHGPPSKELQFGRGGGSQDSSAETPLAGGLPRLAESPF
# Assay: cell-based or functional assay
row,Binder,"EC50 (nM) at glucagon receptor (cAMP production, DiscoveRx Hithunter cAMP XS+, CHO-K1)"
1,B4,0.11 nM
